From paper doi:10.1101/2020.09.08.280818

Legend:
[1] = target: SARS-CoV-2 spike glycoprotein stabilised in the prefusion conformation (P2 S), TwinStrep-tagged (SARS-CoV-2) (UniProt P0DTC2); assay: cryo-EM structure
[2] = target: human ACE2 peptidase domain (PD), Avi-tagged (human); assay: BLI

## SARS-CoV-2 spike glycoprotein stabilised in the prefusion conformation (P2 S), TwinStrep-tagged (from UniProt P0DTC2 14-1273) (natural protein)
[1]
  stoichiometry N: 3
[2]
  Kd: 1 nM
